The assay has as its target collagen I coupled to the Biacore CM5 chip (UniProt P02452). The experiment in a line: SPR; Biacore; SPARC-WT and SPARC-Fut8KO on collagen I; responses compared at 300 s; sensorgrams shown in Fig. 2C of Ref. [20]. For orientation: Surface plasmon resonance follows binding to a sensor surface in real time, without labels.
Chain of UniProt P02452 (P02452 23-1218, chain 1 of 2): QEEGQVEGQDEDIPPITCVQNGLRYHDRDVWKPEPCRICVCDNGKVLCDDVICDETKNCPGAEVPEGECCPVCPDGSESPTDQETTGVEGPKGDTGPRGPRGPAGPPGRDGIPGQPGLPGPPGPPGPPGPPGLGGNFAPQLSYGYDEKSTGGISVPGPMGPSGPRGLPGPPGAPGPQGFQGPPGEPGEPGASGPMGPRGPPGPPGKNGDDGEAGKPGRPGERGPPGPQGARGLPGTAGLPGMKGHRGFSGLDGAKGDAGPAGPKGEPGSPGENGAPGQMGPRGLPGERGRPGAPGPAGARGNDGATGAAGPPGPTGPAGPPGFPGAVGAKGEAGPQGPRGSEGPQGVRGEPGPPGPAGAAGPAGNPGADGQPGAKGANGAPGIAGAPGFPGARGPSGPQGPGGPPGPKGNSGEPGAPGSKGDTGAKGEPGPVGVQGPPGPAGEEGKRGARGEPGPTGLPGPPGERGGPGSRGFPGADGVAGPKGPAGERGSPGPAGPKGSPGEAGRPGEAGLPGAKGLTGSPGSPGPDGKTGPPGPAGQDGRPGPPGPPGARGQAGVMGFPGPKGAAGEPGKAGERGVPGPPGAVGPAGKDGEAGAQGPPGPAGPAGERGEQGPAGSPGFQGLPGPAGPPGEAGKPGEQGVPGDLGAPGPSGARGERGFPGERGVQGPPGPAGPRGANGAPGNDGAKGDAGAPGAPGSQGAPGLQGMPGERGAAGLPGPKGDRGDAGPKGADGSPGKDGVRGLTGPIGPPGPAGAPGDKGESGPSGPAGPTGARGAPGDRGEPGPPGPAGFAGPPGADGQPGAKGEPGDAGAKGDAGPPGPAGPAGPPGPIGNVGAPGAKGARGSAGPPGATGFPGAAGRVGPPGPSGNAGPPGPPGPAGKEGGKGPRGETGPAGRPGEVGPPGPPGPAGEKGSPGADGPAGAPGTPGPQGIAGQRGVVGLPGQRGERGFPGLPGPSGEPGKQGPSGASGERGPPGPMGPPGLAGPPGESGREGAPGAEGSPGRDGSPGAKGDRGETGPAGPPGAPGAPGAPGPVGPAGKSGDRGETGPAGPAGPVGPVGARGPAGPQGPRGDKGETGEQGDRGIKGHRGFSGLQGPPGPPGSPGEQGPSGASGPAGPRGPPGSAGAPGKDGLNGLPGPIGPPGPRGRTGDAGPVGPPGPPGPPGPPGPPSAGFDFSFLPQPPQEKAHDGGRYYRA
Chain of UniProt P02452 (P08123 80-1119, chain 2 of 2, further chain): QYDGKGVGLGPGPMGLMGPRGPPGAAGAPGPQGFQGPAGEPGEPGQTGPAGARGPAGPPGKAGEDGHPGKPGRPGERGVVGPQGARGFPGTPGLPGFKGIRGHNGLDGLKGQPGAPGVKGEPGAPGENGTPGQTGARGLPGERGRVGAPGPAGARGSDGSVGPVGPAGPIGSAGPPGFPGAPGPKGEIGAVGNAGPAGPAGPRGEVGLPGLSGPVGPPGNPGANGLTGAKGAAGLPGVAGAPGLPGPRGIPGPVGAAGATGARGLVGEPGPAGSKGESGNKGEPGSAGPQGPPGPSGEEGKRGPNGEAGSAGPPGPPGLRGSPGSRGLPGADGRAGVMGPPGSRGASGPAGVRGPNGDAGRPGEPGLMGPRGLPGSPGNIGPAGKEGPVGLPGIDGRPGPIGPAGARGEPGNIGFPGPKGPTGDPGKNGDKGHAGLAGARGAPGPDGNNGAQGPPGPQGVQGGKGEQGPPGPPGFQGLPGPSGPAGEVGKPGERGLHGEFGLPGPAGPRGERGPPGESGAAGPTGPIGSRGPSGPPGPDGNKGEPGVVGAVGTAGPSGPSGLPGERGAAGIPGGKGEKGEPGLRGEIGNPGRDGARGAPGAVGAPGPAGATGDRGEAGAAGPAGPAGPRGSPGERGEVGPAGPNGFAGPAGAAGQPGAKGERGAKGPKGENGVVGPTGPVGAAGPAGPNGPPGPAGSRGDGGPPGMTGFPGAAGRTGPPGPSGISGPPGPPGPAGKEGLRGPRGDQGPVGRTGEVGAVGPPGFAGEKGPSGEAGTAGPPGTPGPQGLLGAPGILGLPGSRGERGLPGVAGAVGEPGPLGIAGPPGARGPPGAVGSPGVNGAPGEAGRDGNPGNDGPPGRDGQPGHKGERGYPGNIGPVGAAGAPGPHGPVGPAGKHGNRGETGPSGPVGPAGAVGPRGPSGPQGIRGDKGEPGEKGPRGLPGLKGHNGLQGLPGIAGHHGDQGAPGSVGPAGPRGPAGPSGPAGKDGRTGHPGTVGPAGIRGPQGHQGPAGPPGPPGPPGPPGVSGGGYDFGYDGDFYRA

B1: recombinant His-tagged human SPARC from FUT8-knockout HEK-293T cells (SPARC-Fut8KO), not core-fucosylated (natural protein)
chain: APQQEALPDETEVVEETVAEVTEVSVGANPVQVEVGEFDDGAEETEEEVVAENPCQNHHCKHGKVCELDENNTPMCVCQDPTSCPAPIGEFEKVCSNDNKTFDSSCHFFATKCTLEGTKKGHKLHLDYIGPCKYIPPCLDSELTEFPLRMRDWLKNVLVTLYERDEDNNLLTEKQKLRVKKIHENEKRLEAGDHPVELLARDFEKNYNMYIFPVHWQFGQLDQHPIDGYLSHTELAPLRAPLIPMEHCTTRFFETCDLDNDKYIALDEWAGCFGIKQKDIDKDLVI
modifications: not core-fucosylated at N116
B1 registered a binding response (RU) relative to SPARC-WT at 300 s of 40%.

The record behind these values is publication PMC9174126.
